Laboratory results as given in patent US20140255414A1.

Biological target: Aβ(pE11-30) peptide
Assay: direct ELISA, adsorbed Aβ(pE11-30), 1 µg/ml biotinylated antibody with SA-HRP

Chain of Aβ(pE11-30) peptide (peptide, as listed by the source): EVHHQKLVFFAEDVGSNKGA

ELISA signal relative to clone 13: 5 times lower
Substance: biotinylated monoclonal mouse anti Aβ(17-24) antibody (clone 4G8, Covance)
